This series has as its target MaMADS36 (Musa spp. (banana), UniProt A0ACE1XRG1 54-288). Briefly: EMSA; Not given in material; EMSA according to Liu et al. [22]. The following applies: protein: recombinant; chain copies: 2. In general terms: Mobility shift assays separate free from complexed probe on a gel.

MaMADS36, sequence (A0ACE1XRG1 entry or part of it): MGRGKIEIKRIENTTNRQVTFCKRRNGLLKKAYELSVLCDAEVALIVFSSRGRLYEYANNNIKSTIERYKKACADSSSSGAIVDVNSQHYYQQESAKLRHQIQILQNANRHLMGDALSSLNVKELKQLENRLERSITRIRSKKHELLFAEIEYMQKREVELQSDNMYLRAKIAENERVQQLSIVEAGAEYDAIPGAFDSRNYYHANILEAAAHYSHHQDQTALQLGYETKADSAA

B1: MaACS7 promoter C(A/T)rG probe (dsDNA)
DNA 1: GTTTCTTTTTTGGT
DNA 2: ACCAAAAAAGAAAC
Regarding B1, the binding result is listed as “binds”.
